Test results reported in patent US20250295803A1, “5T4 ANTIBODY-DRUG CONJUGATES AND USES THEREOF” (EXELIXIS, INC., priority 2022, published 2025).
Substitutions are numbered along the chain they refer to. Values belong to the binder of their own block, whether it stands above or below them.

Tests used:
[1] = molecular target: T1, cynomolgus 5T4 on cells (HEK-cyno-5T4, transfected HEK293 and CHO cells) (cynomolgus monkey, UniProt Q4R8Y9 35-420); assay: cell binding on transfected HEK293 and CHO cells
T1 construct: also called HEK-cyno-5T4 cells
T1 sequence: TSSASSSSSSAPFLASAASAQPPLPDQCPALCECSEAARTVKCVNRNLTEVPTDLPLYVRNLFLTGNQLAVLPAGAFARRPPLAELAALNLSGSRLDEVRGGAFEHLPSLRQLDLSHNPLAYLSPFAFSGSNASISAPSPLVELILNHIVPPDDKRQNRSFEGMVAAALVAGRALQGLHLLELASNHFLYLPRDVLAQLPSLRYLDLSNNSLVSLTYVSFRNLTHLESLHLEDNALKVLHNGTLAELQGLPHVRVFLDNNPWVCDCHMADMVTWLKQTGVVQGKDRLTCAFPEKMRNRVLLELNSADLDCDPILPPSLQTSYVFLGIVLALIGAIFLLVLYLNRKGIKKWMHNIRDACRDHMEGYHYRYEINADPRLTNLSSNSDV

[2] = molecular target: T2, mouse 5T4 on transfected HEK293 and CHO cells (mouse, UniProt Q9Z0L0 32-426); assay: cell binding on transfected HEK293 and CHO cells
T2 sequence: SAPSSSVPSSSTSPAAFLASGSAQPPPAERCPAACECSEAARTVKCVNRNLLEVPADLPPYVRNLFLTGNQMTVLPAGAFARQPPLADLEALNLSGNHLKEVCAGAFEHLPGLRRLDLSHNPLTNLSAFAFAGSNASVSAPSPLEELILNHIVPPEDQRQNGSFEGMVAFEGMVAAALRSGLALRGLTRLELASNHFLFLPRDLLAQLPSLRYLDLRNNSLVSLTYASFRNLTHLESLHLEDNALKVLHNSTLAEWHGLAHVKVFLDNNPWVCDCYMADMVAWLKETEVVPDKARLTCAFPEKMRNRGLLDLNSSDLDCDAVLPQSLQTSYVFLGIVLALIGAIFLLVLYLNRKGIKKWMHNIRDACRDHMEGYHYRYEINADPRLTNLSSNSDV

[3] = molecular target: T3, biotinylated cynomolgus 5T4 with His-Avi tag (produced in-house) (cynomolgus monkey, UniProt Q4R8Y9 35-355, biotin on the Avi tag); assay: summary of Examples 2-5; form of the antigen not given
T3 construct: also called cyno 5T4; Cyno 5T4 Octet (bivalent); not shown: C-terminal 6-His-Avi tag
T3 sequence: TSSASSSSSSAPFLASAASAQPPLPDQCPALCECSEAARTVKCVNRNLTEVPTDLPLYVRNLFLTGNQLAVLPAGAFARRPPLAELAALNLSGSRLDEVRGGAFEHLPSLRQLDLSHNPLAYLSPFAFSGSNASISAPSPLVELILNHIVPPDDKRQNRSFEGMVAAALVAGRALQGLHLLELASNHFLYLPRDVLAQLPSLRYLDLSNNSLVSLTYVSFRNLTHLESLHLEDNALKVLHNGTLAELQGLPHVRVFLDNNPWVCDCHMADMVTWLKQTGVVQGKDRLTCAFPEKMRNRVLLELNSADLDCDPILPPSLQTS

binding result [1]: binds
B1: mAbA17 (antibody, V domains shown)
VH: EVQLVESGGGLVQPGGSLRLSCAASGFTFSRYWIHWVRQAPGKGLEWVAAIFPYSGSTLYADSVKGRFTISADTSKNTAYLQMNSLRAEDTAVYYCARSPSRSILPSGLDYWGQGTLVTVSS
VL: DIQMTQSPSSLSASVGDRVTITCRASQSVSSAVAWYQQKPGKAPKLLIYSASSLYSGVPSRFSGSRSGTDFTLTISSLQPEDFATYYCQQGDGSPYTFGQGTKVEIKR
notes: also called Antibody mAbA17

binding result [2]: no binding
binding result [3]: binds
B2: mAbA4 (antibody, V domains shown)
VH: EVQLVESGGGLVQPGGSLRLSCAASGFTFSRYYIHWVRQAPGKGLEWVAFISPGGSYTYYADSVKGRFTISADTSKNTAYLQMNSLRAEDTAVYYCAREYYSMGVLDYWGQGTLVTVSS
VL: B1 VL with G91A, D92Y, G93E
notes: also called Antibody mAbA4
